Measurements: the supplement of paper PMC9170038

Tested on: MS2 coat protein
Test: apparent KD of MS2 coat protein; designed switch direction (-1 OFF switch, 1 ON switch): 1; higher = weaker reporter binding
Summary of the method: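 Each step of the titration lasted 0.8–1.5 h at the lowest concentration and 10–20 min at the highest. The protein, SNAP-549-labelled MS2 coat protein, went from 0.7 or 1.5 nM doubling to 3 µM over RNA switches transcribed on Illumina chips by stalled E. coli RNA polymerase. Normalised cluster fluorescence was curve-fitted, and the per-design median over clusters is given as apparent KD.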

[1] = input ligand: microRNA oligo, concentration not stated
[2] = Eterna round: R95, input ligand: microRNA oligo, concentration not stated
[3] = Eterna round: R95, input ligand: FMN 200 uM
[4] = Eterna round: R95, input ligand: none

Row | Sequence | apparent KD of MS2 coat protein [1] | apparent KD of MS2 coat protein (input ligand: FMN 200 uM) | apparent KD of MS2 coat protein (input ligand: none) | apparent KD of MS2 coat protein [2] | apparent KD of MS2 coat protein [3] | apparent KD of MS2 coat protein [4]
1 | UGUUGUAUUACAGGAUAUCUAUUGGUUUUAUUUAGAGAAGGGUAUUCACAUGAGGAUCACCCAUGUAUAUACGAGGAAGUUGUG [JMF's solution 72] (Eterna round: R96, puzzle: Same State NG 1) | 0.0433 µM |  |  |  |  | 
2 | UUGAAGAAUUAAGGAUAUCGAGUACAUAUGUUUAACAUGAGGAUCACCCAUGUGGGUUGCGGUAUCGAGAAGGUAAAUUACAAG [JL SSNG2 1.43] (Eterna round: R96, puzzle: Same State NG 2) | 0.032 µM | 0.0453 µM | 0.0539 µM |  |  | 
3 | GUGGUCCUCACAGGAUAUCAGCGGCCUUCACGCUGAGAAGGGUGACUGGGCUACAAGGCUAUAGACAUGAGGAUCACCCAUGUA [Direbe] (Eterna round: R96, puzzle: Same State NG 1) | 0.11 µM | 0.194 µM | 0.194 µM |  |  | 
4 | CAGCGCUGUCGAGAGGAUAUGCAGUGAUGGACAUGAGGAUCACCCAUGUUAGCGAUAGCAUUACGGUAGAAGGCUCUACAGCUGC [Soteed - 13] (puzzle: Same State 2) |  |  |  | 0.0164 µM |  | 
5 | AUUAUUUAUGCAGGAUAUGAUUAACAUGAGGAUCACCCAUGUGGUGUUGUGAGUAAGGAGAGUGAUCAGAAGGGCAUUAUUUUU [JMF's solution 45] (Eterna round: R96, puzzle: Same State NG 2) | 0.214 µM | 0.634 µM | 0.355 µM |  |  | 
6 | AGUCCAGCCUGAGCUGGACAAAAGCAUGUACAUGAGGAUCACCCAUGUCAUGUACAAGCUUUUUGCUCGUCUUGAUA [Zipper 49 - 8] (puzzle: Sensor for hsa-mir-208a) |  |  |  | 0.0167 µM | 0.416 µM | 0.435 µM
7 | AGCCGAGACUGAGGAUAUUUUAAUCUACAUGAGGAUCACCCAUGUAACAACACGUGGUAGUGAUAGAAGAAGGCGGCUCGGCGC [Omei SS(NG)2 Cv1] (Eterna round: R96, puzzle: Same State NG 2) | 0.162 µM | 0.176 µM | 0.386 µM |  |  | 
8 | UAGUGCAUUAGAGGAUAUUCUUACGACACGAGUAAGACAUGAGGAUCACCCAUGUCGUGACAUGGGAAGAAGGCUGAUGUGCUA [Omei SS(NG)2 Bv6] (Eterna round: R96, puzzle: Same State NG 2) | 0.0271 µM | 0.012 µM | 0.0358 µM |  |  | 
9 | UAGCUCGUGUGAGGAUAUGCCGCCGUUUCGGCUGCAGAAGGUGCUACGUUACAUGAGGAUCACCCAUGUCUCUGUUGUUUCGUC [salish99_SSNG1_r04_955] (Eterna round: R96, puzzle: Same State NG 1) | 0.0239 µM |  |  |  |  | 
10 | UUUAGUUGCGGGCAGGAUAUGUAUUAAAAUACAUGAGGAUCACCCAUGUGCGGGUAUAACACCCGACAGAAGGGCCAAUCGCGAC [Laonerce] (Eterna round: R96, puzzle: Same State 2) | 0.256 µM | 0.0245 µM | 0.278 µM |  |  | 
11 | AGCUUGUGGGUAGGAUAUUUAGGAUAUGCGGAAGACUAAGUCUGUAGGUCACCUAACGCAGAAGGAGAGAAGGACCCUUCAGCA [pwkr ssNG2 2FMN + F9.30] (Eterna round: R96, puzzle: Same State NG 2) | 0.0211 µM | 0.353 µM | 0.0913 µM |  |  | 
12 | UCGGGCUCUGCUCGUCUUGAGUUGCUCCCACAUGAGGAUCACCCAUGUAGUGUGCCUAUCAGCGCGCGGGUGACUUU [Riesonso] (puzzle: Sensor for hsa-mir-208a) |  |  |  | 0.133 µM | 0.328 µM | 0.35 µM
13 | GGUAGGUUACUACCAAUACAUGAGGAUCACCCAUGUUAUCAUGAGGAUAUGGUACCUAUUUGGUACCAGAAGGCAUGUAUAAUU [Fiskers NG3ss - 19] (Eterna round: R96, puzzle: Same State NG 3) | 0.0626 µM | 0.0436 µM | 0.0605 µM |  |  | 
14 | CAGCCACAAAAUACGGCUGAAACAUGAGGAUCACCCAUGUCACAGGAUAUCCAACGGUAUACCGCGGAGAAGGGUGCGAAGAAC [Ceusso] (Eterna round: R96, puzzle: Same State NG 3) | 0.0738 µM | 0.0737 µM | 0.0524 µM |  |  | 
15 | AAACGGCCGAACGGAGGGCCACAUGAGGAUCACCCAUGUACAUAGGAUAUCACGCCAACGAAGCGUGAGAAGGGUGAUUAAAAC [Anriusxees] (Eterna round: R96, puzzle: Same State NG 3) | 0.00464 µM | 0.341 µM | 0.104 µM |  |  | 
16 | GCCAUCGCAUGAGGAUAUGGCACCGUUUCGGUGCCAGAAGGCAUGUCGUAAGACAUGAGGAUCACCCAUGUAGUUAAGAUGGCA [JL Fiskers NG1ss - 33 mod 8] (Eterna round: R96, puzzle: Same State NG 1) | 0.101 µM | 0.219 µM | 0.407 µM |  |  | 

Row | Sequence | apparent KD of MS2 coat protein [1] | apparent KD of MS2 coat protein (input ligand: FMN 200 uM) | apparent KD of MS2 coat protein (input ligand: none) | apparent KD of MS2 coat protein [2] | apparent KD of MS2 coat protein [3] | apparent KD of MS2 coat protein [4]
17 | UCUUGGUUUUUGCUCGUUUUUUGUGUUGAACAUGAGGAUCACCCAUGUAUUGUACAAUCCGGUUUGAUGAUGGUCCA [JMF 47] (Eterna round: R96, puzzle: Sensor for hsa-mir-208a) | 0.0555 µM | 0.125 µM | 0.115 µM |  |  | 
18 | CAGCGCUGUCGAGAGGAUAUGCAGUGAUGGACAUGAGGAUCACCCAUGUUAGCGAUAGCAUUACAGUAGAAGGCUCUACAGCUGC [Soteed - 14] (puzzle: Same State 2) |  |  |  | 0.0164 µM | 0.013 µM | 0.0195 µM
19 | GUUACAUGAGGAUCACCCAUGUAUGUGUGGGAGUAAGUGUCUUAGGAUAUCUAUUAUUUAAUUAAAGAGAAGGAAGAUUGUUGU [JMF's solution 25] (Eterna round: R96, puzzle: Same State NG 3) | 0.0812 µM | 0.115 µM | 0.102 µM |  |  | 
20 | GUGGAGAAUUAAGGAUAUCGAGUCAAGAUGUUAAACAUGAGGAUCACCCAUGUGGGUUGCGGUAUCGAGAAGGUAAAUUACGGG [salish99_SSNG2_r04_504] (Eterna round: R96, puzzle: Same State NG 2) | 0.0251 µM | 0.0283 µM | 0.0341 µM |  |  | 
21 | AUAAGUUUGAUGCUCGUCUCUCCGUACAGACAUGAGGAUCACCCAUGUAGUCGGGAAGUAGCCCGGCCUGUAUGGCC [Magequ] (puzzle: Sensor for hsa-mir-208a) |  |  |  | 0.0157 µM | 0.0152 µM | 0.0144 µM
22 | GGUCGGAACCACAUGAGGAUCACCCAUGUUCCGGAAACGGCGCAGGAUAUCUGUCCGAAAAGGUCAGAGAAGGGUGAACCGACC [Fiskers NG3ss - 78] (Eterna round: R96, puzzle: Same State NG 3) | 0.314 µM | 0.462 µM | 0.236 µM |  |  | 
23 | GCCAACUAAUGAGGAUAUGGCACCUUAUUGGUGCCAGAAGGCAUGUCAAAAGACAUGAGGAUCACCCAUGUAUUAUAGUUGGCA [Mat - Same State NG 1 - JL mod - D73] (Eterna round: R96, puzzle: Same State NG 1) | 0.0625 µM | 0.0255 µM | 0.304 µM |  |  | 
24 | UUAAUAAAGUAAGGAUAUACAUGAGGAUCACUCGUAGAAGGUACUAAACAUGAGGAUCACCCAUGUACCGGUCCGUAGACUGGA [Mat - Same State NG 1 - JL mod - D1] (Eterna round: R96, puzzle: Same State NG 1) | 0.108 µM | 0.844 µM | 0.364 µM |  |  | 
25 | AAAAGACAUGAGGAUCACCCAUGUAACGGUCGUCAAGGAUAUGCAUAGGUCCAUUGACCAGCAGAAGGUGAUACCU [Xeanlarace] (puzzle: Same State 1) |  |  |  | 0.0566 µM | 0.4 µM | 0.0383 µM
26 | UCAGUCAUGUAAGGAUAUGCAGCCGAAACGGCUGCAGAAGGUACUAUAAUUACAUGAGGAUCACCCAUGUUAUAAAUAAAAUAU [Mat - Same State NG 1 - JL mod - D66] (Eterna round: R96, puzzle: Same State NG 1) | 0.043 µM | 0.0231 µM | 0.0626 µM |  |  | 
27 | UACAAUCUAUCUGAGGAUAUCAUGAAUAUAACAUGAGGAUCACCCAUGUGCAGGAAAACUGCAUAUGAGAAGGCAGAUAGAUUGU [salish99_ss2_r3_068] (puzzle: Same State 2) |  |  |  | 0.0492 µM | 0.0613 µM | 0.109 µM
28 | GAGUAGUUAAAAGGAUAUUGAUUAUUGUAGGAUCAAGAAGGUUUUAACAUGAGGAUCACCCAUGUAGGACUAUAAAUGUGAAAA [Parity 93 - Jieux - Same State NG 1] (Eterna round: R96, puzzle: Same State NG 1) | 0.0125 µM |  |  |  |  | 
29 | UUUGGGUGGCUGGAGGAUAUCCUUGUGGUUACAUGAGGAUCACCCAUGUGCCGCGCGGUGCGCGAGGAGAAGGCUGGCGGCCGUU (puzzle: Same State 2) |  |  |  | 0.0795 µM | 0.026 µM | 0.151 µM
30 | GAAAAACAUGAGGAUCACCCAUGUAGAAAUAUGGGAGGAUAUACAAAGUCGAAAGACAAAGUAGAAGGCCUAAAAG [Mat - Same State 1 - Eli mod - D2] (Eterna round: R96, puzzle: Same State 1) | 0.0968 µM |  |  |  |  | 
31 | CGUCCGGCCUGUGCUGGCCGGUGGCUUGUACAUGAGGAUCACCCAUGUUCUUGUGCUGGCUUUUUGCUCGUCUUGUG [salish99_mir208a_021] (puzzle: Sensor for hsa-mir-208a) |  |  |  | 0.0189 µM | 0.037 µM | 0.0438 µM
